Experimental findings from publication PMC10432269, “Diverse modes of H3K36me3-guided nucleosomal deacetylation by Rpd3S” (Nature, 2023) are described below.

Usually Kd stands for the constant that tells how readily two partners part at equilibrium. A low value points to a tighter complex.

The target of data set [1] is T1, unmodified histone H3 residues 1–10 peptide.
T1 construct: Histone H3 residues 1-10, unmodified; also called H3_(1–10); H3un; source: synthetic peptide
T1 peptide: ARTKQTARKS
As to the kind of experiment: ITC; 25 °C, MicroCal PEAQ-ITC; 20 mM Tris 7.5, 50 mM NaCl, 5% glycerol; one set of binding sites model. The settings on record: both partners purified. For orientation: Isothermal titration calorimetry measures the heat released or taken up as one component is titrated into another.

Data set [2] deals with the molecule itself. The experiment in a line: cryo-EM structure; free Rpd3S complex, subunits co-expressed in Sf9 and purified together; stabilised by GraFix (glycerol gradient with 0.15% glutaraldehyde); 3.2 Å overall, local maps 2.7 Å and 3.2 Å.

No end group written: not given here.

As to EDFCSACNQSGSFLCCDTCPKSFHFLCLDPPIDPNNLPKGDWHCNECKFK (domain or fragment, cysteine pairing not given here; also: Zn2+ bound) [PHD1 domain of Rco1], the Kd in data set [1] was roughly 39 µM.

B1: Rco1 (natural protein, S. cerevisiae, UniProt Q04779 1-684, looked up)
chain: MDTSKKDTTRSPSHSNSSSPSSSSLSSSSSKEKKRPKRLSSQNVNYDLKRRKIITSEGIERSFKNEHSNLAVEDNIPEEEPKELLEKDSKGNIIKLNEPSTISEDSKVSVTGLPLNKGPSEKIKRESLWNYRKNLGGQSNNSEMTLVPSKRFTQVPKNFQDLNRNDLKTFLTENMTEESNIRSTIGWNGDIINRTRDREPESDRDNKKLSNIRTKIILSTNATYDSKSKLFGQNSIKSTSNASEKIFRDKNNSTIDFENEDFCSACNQSGSFLCCDTCPKSFHFLCLDPPIDPNNLPKGDWHCNECKFKIFINNSMATLKKIESNFIKQNNNVKIFAKLLFNIDSHNPKQFQLPNYIKETFPAVKTGSRGQYSDENDKIPLTDRQLFNTSYGQSITKLDSYNPDTHIDSNSGKFLICYKCNQTRLGSWSHPENSRLIMTCDYCQTPWHLDCVPRASFKNLGSKWKCPLHSPTKVYKKIHHCQEDNSVNYKVWKKQRLINKKNQLYYEPLQKIGYQNNGNIQIIPTTSHTDYDFNQDFKITQIDENSIKYDFFDKIYKSKMVQKRKLFQFQESLIDKLVSNGSQNGNSEDNMVKDIASLIYFQVSNNDKSSNNKSASKSNNLRKLWDLKELTNVVVPNELDSIQFNDFSSDEIKHLLYLKKIIESKPKEELLKFLNIENPENQSE
notes: Rco1, S. cerevisiae, full length; residues 107-565 (Rco1-A) and 262-358 (Rco1-B) are modelled in the structure; The complex was captured on strep beads by the Strep-tag of Rco1; the tag was then cleaved with TEV protease before anion exchange and SEC; Two copies (Rco1-A, Rco1-B) stand in the Rpd3S complex; also called Rco1-A; Rco1-B; not shown: Strep-tag, N-terminal, cleaved
For B1, the binding result in data set [2] is recorded as “binds”.
